Assay results published in the supplement of paper PMC10567573.

B1: PDLIM7 (parent)
chain: AAGGVPGGGSNNGKTPVCHQCHKV
B2: KLHL12 (parent)
chain: SMTTPRCYVGATVLRGRLYAIAGY

Variants of: B1
Experiment: protein stability index of a GFP-peptide fusion (GPS, HEK-293T) (PSI 1-6); higher = more stable
Details: c terminus: a fixed tail appended
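Also: lentivirally expressed fusions sorted by FACS into six bins by GFP to DsRed ratio, PSI derived from sequencing read proportions per bin multiplied by bin number.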

Q: With AAGGVPGGGNNNGKTPVCHQCHKV [S10N] as the variant, how does the protein stability index read?
A: The protein stability index was 3.32.

Q: Which protein stability index does the source give for AAGGVPGGGHNNGKTPVCHQCHKV [S10H] here?
A: The protein stability index was 2.21.

Q: Which protein stability index does the source give for AAGGVPGGGKNNGKTPVCHQCHKV [S10K] here?
A: The protein stability index was 3.18.

Q: Which protein stability index does the source give for AAGGVPGGGTNNGKTPVCHQCHKV [S10T] here?
A: Its protein stability index is 2.67.

Q: With AAGGVPGGGPNNGKTPVCHQCHKV [S10P] as the variant, how does the protein stability index read?
A: Its protein stability index is 2.9.

Q: Which protein stability index does the source give for AAGGVPGGGQNNGKTPVCHQCHKV [S10Q] here?
A: The protein stability index was 3.02.

Q: For AAGGVPGGGINNGKTPVCHQCHKV [S10I], which protein stability index is on record?
A: The protein stability index was 2.37.

Q: For AAGGVPGGGCNNGKTPVCHQCHKV [S10C], which protein stability index is on record?
A: The protein stability index was 2.19.

Q: For AAGGVPGGGLNNGKTPVCHQCHKV [S10L], which protein stability index is on record?
A: The protein stability index was 2.47.

Q: Which protein stability index does the source give for AAGGVPGGGFNNGKTPVCHQCHKV [S10F] here?
A: Its protein stability index is 2.02.

Q: Which protein stability index does the source give for AAGGVPGGGDNNGKTPVCHQCHKV [S10D] here?
A: The protein stability index was 3.96.

Q: For AAGGVPGGKSNNGKTPVCHQCHKV [G9K], which protein stability index is on record?
A: Its protein stability index is 3.64.

Q: For AAGGVPGGVSNNGKTPVCHQCHKV [G9V], which protein stability index is on record?
A: The protein stability index was 2.59.

Q: With AAGGVPGGQSNNGKTPVCHQCHKV [G9Q] as the variant, how does the protein stability index read?
A: Its protein stability index is 3.6.

Q: Which protein stability index does the source give for AAGGVPGGMSNNGKTPVCHQCHKV [G9M] here?
A: Its protein stability index is 3.22.

Q: Which protein stability index does the source give for AAGGVPGGPSNNGKTPVCHQCHKV [G9P] here?
A: The protein stability index was 3.69.

Q: With AAGGVPGGRSNNGKTPVCHQCHKV [G9R] as the variant, how does the protein stability index read?
A: The protein stability index was 3.06.

Q: Which protein stability index does the source give for AAGGVPGGWSNNGKTPVCHQCHKV [G9W] here?
A: The protein stability index was 2.98.

Q: For AAGGVPGGNSNNGKTPVCHQCHKV [G9N], which protein stability index is on record?
A: The protein stability index was 3.21.

Q: Which protein stability index does the source give for AAGGVPGGSSNNGKTPVCHQCHKV [G9S] here?
A: The protein stability index was 2.65.

Q: With AAGGVPGGTSNNGKTPVCHQCHKV [G9T] as the variant, how does the protein stability index read?
A: The protein stability index was 2.79.

Q: For AAGGVPGGLSNNGKTPVCHQCHKV [G9L], which protein stability index is on record?
A: Its protein stability index is 3.19.

Q: With AAGGVPGGYSNNGKTPVCHQCHKV [G9Y] as the variant, how does the protein stability index read?
A: The protein stability index was 3.56.

Variants of: B2
Experiment: as above
Details: c terminus: a fixed tail appended

Q: Which protein stability index does the source give for SMTHPRCYVGATVLRGRLYAIAGY [T4H] here?
A: The protein stability index was 3.03.

Q: With SMTKPRCYVGATVLRGRLYAIAGY [T4K] as the variant, how does the protein stability index read?
A: The protein stability index was 2.69.

Q: For SMTAPRCYVGATVLRGRLYAIAGY [T4A], which protein stability index is on record?
A: The protein stability index was 1.

Q: For SMTLPRCYVGATVLRGRLYAIAGY [T4L], which protein stability index is on record?
A: The protein stability index was 2.16.

Q: Which protein stability index does the source give for SMTYPRCYVGATVLRGRLYAIAGY [T4Y] here?
A: The protein stability index was 2.75.

Q: Which protein stability index does the source give for SMTRPRCYVGATVLRGRLYAIAGY [T4R] here?
A: The protein stability index was 2.16.

Q: For SMTIPRCYVGATVLRGRLYAIAGY [T4I], which protein stability index is on record?
A: The protein stability index was 2.44.

Q: With SMTPPRCYVGATVLRGRLYAIAGY [T4P] as the variant, how does the protein stability index read?
A: Its protein stability index is 1.93.

Q: With SMTMPRCYVGATVLRGRLYAIAGY [T4M] as the variant, how does the protein stability index read?
A: Its protein stability index is 3.38.

Q: With SMTSPRCYVGATVLRGRLYAIAGY [T4S] as the variant, how does the protein stability index read?
A: The protein stability index was 2.3.

Q: With SMTDPRCYVGATVLRGRLYAIAGY [T4D] as the variant, how does the protein stability index read?
A: Its protein stability index is 2.27.

Q: For SMTFPRCYVGATVLRGRLYAIAGY [T4F], which protein stability index is on record?
A: Its protein stability index is 2.12.

Q: For SMTVPRCYVGATVLRGRLYAIAGY [T4V], which protein stability index is on record?
A: The protein stability index was 2.65.

Q: For SMTNPRCYVGATVLRGRLYAIAGY [T4N], which protein stability index is on record?
A: Its protein stability index is 3.79.

Q: Which protein stability index does the source give for SMTTPRCYMGATVLRGRLYAIAGY [V9M] here?
A: The protein stability index was 2.43.

Q: For SMTTPRCYPGATVLRGRLYAIAGY [V9P], which protein stability index is on record?
A: Its protein stability index is 1.7.

Q: For SMTTPRCYHGATVLRGRLYAIAGY [V9H], which protein stability index is on record?
A: The protein stability index was 2.62.

Q: For SMTTPRCYKGATVLRGRLYAIAGY [V9K], which protein stability index is on record?
A: Its protein stability index is 1.63.

Q: For SMTTPRCYEGATVLRGRLYAIAGY [V9E], which protein stability index is on record?
A: Its protein stability index is 2.3.

Q: For SMTTPRCYNGATVLRGRLYAIAGY [V9N], which protein stability index is on record?
A: Its protein stability index is 2.26.

Q: Which protein stability index does the source give for SMTTPRCYSGATVLRGRLYAIAGY [V9S] here?
A: The protein stability index was 1.82.

Q: For SMTTPRCYRGATVLRGRLYAIAGY [V9R], which protein stability index is on record?
A: The protein stability index was 3.6.

Q: For SMTTPRCYFGATVLRGRLYAIAGY [V9F], which protein stability index is on record?
A: The protein stability index was 2.87.

Q: With SMTTPRCYDGATVLRGRLYAIAGY [V9D] as the variant, how does the protein stability index read?
A: The protein stability index was 1.4.

Q: For SMTTPRCYYGATVLRGRLYAIAGY [V9Y], which protein stability index is on record?
A: The protein stability index was 3.18.

Q: Which protein stability index does the source give for SMTTPRCYLGATVLRGRLYAIAGY [V9L] here?
A: The protein stability index was 3.27.

Q: With SMTTPRCYIGATVLRGRLYAIAGY [V9I] as the variant, how does the protein stability index read?
A: The protein stability index was 2.74.

Q: With SMTTPRCYWGATVLRGRLYAIAGY [V9W] as the variant, how does the protein stability index read?
A: The protein stability index was 2.17.

Q: Which protein stability index does the source give for SMTTPRCYAGATVLRGRLYAIAGY [V9A] here?
A: Its protein stability index is 2.

Q: For SMTTPRCYQGATVLRGRLYAIAGY [V9Q], which protein stability index is on record?
A: The protein stability index was 1.96.

Q: For SMTTPRCYTGATVLRGRLYAIAGY [V9T], which protein stability index is on record?
A: Its protein stability index is 1.74.

Q: Which protein stability index does the source give for SMTTPRCYGGATVLRGRLYAIAGY [V9G] here?
A: The protein stability index was 1.93.

Q: With SMTTPRCTVGATVLRGRLYAIAGY [Y8T] as the variant, how does the protein stability index read?
A: Its protein stability index is 2.12.

Q: For SMTTPRCRVGATVLRGRLYAIAGY [Y8R], which protein stability index is on record?
A: Its protein stability index is 1.21.

Q: With SMTTPRCHVGATVLRGRLYAIAGY [Y8H] as the variant, how does the protein stability index read?
A: The protein stability index was 1.74.

Q: Which protein stability index does the source give for SMTTPRCDVGATVLRGRLYAIAGY [Y8D] here?
A: Its protein stability index is 1.71.

Q: With SMTTPRCPVGATVLRGRLYAIAGY [Y8P] as the variant, how does the protein stability index read?
A: The protein stability index was 1.71.

Q: With SMTTPRCNVGATVLRGRLYAIAGY [Y8N] as the variant, how does the protein stability index read?
A: Its protein stability index is 1.5.

Q: Which protein stability index does the source give for SMTTPRCEVGATVLRGRLYAIAGY [Y8E] here?
A: Its protein stability index is 1.06.

Q: Which protein stability index does the source give for SMTTPRCFVGATVLRGRLYAIAGY [Y8F] here?
A: The protein stability index was 2.98.

Q: Which protein stability index does the source give for SMTTPRCQVGATVLRGRLYAIAGY [Y8Q] here?
A: The protein stability index was 2.18.

Q: With SMTTPRCLVGATVLRGRLYAIAGY [Y8L] as the variant, how does the protein stability index read?
A: The protein stability index was 2.48.

Q: For SMTTPRCIVGATVLRGRLYAIAGY [Y8I], which protein stability index is on record?
A: Its protein stability index is 3.73.

Q: For SMTTPRCMVGATVLRGRLYAIAGY [Y8M], which protein stability index is on record?
A: Its protein stability index is 1.57.

Q: Which protein stability index does the source give for SMTTPRCAVGATVLRGRLYAIAGY [Y8A] here?
A: The protein stability index was 2.

Q: Which protein stability index does the source give for SMTTPRCSVGATVLRGRLYAIAGY [Y8S] here?
A: Its protein stability index is 2.77.

Q: For SMTTPRCWVGATVLRGRLYAIAGY [Y8W], which protein stability index is on record?
A: The protein stability index was 1.82.

Q: Which protein stability index does the source give for SMTTPRCKVGATVLRGRLYAIAGY [Y8K] here?
A: Its protein stability index is 2.88.

Q: Which protein stability index does the source give for SMTTPQCYVGATVLRGRLYAIAGY [R6Q] here?
A: Its protein stability index is 2.54.

Q: Which protein stability index does the source give for SMTTPNCYVGATVLRGRLYAIAGY [R6N] here?
A: Its protein stability index is 2.26.

Q: With SMTTPGCYVGATVLRGRLYAIAGY [R6G] as the variant, how does the protein stability index read?
A: The protein stability index was 1.27.

Q: With SMTTPFCYVGATVLRGRLYAIAGY [R6F] as the variant, how does the protein stability index read?
A: Its protein stability index is 2.04.

Q: For SMTTPTCYVGATVLRGRLYAIAGY [R6T], which protein stability index is on record?
A: Its protein stability index is 1.53.

Q: For SMTTPLCYVGATVLRGRLYAIAGY [R6L], which protein stability index is on record?
A: Its protein stability index is 1.18.

Q: Which protein stability index does the source give for SMTTPICYVGATVLRGRLYAIAGY [R6I] here?
A: Its protein stability index is 1.55.

Q: For SMTTPACYVGATVLRGRLYAIAGY [R6A], which protein stability index is on record?
A: The protein stability index was 1.73.

Q: For SMTTPKCYVGATVLRGRLYAIAGY [R6K], which protein stability index is on record?
A: Its protein stability index is 2.04.

Q: With SMTTPDCYVGATVLRGRLYAIAGY [R6D] as the variant, how does the protein stability index read?
A: Its protein stability index is 2.56.

Q: For SMTTPPCYVGATVLRGRLYAIAGY [R6P], which protein stability index is on record?
A: Its protein stability index is 1.83.

Q: For SMTTPSCYVGATVLRGRLYAIAGY [R6S], which protein stability index is on record?
A: The protein stability index was 2.42.

Q: For AMTTPRCYVGATVLRGRLYAIAGY [S1A], which protein stability index is on record?
A: Its protein stability index is 1.85.

Q: Which protein stability index does the source give for PMTTPRCYVGATVLRGRLYAIAGY [S1P] here?
A: Its protein stability index is 3.62.

Q: For MMTTPRCYVGATVLRGRLYAIAGY [S1M], which protein stability index is on record?
A: Its protein stability index is 1.89.

Q: For EMTTPRCYVGATVLRGRLYAIAGY [S1E], which protein stability index is on record?
A: Its protein stability index is 1.66.

Q: Which protein stability index does the source give for LMTTPRCYVGATVLRGRLYAIAGY [S1L] here?
A: Its protein stability index is 3.32.

Q: For GMTTPRCYVGATVLRGRLYAIAGY [S1G], which protein stability index is on record?
A: The protein stability index was 2.39.

Q: With KMTTPRCYVGATVLRGRLYAIAGY [S1K] as the variant, how does the protein stability index read?
A: The protein stability index was 1.92.

Q: Which protein stability index does the source give for HMTTPRCYVGATVLRGRLYAIAGY [S1H] here?
A: Its protein stability index is 1.51.

Q: Which protein stability index does the source give for RMTTPRCYVGATVLRGRLYAIAGY [S1R] here?
A: Its protein stability index is 3.81.

Q: Which protein stability index does the source give for IMTTPRCYVGATVLRGRLYAIAGY [S1I] here?
A: The protein stability index was 2.52.

Q: With DMTTPRCYVGATVLRGRLYAIAGY [S1D] as the variant, how does the protein stability index read?
A: The protein stability index was 2.24.
